For 45 molecules, Kd results are on record in patent US20250066503A1, “CELL INJURY INDUCING THERAPEUTIC DRUG FOR USE IN CANCER THERAPY” (CHUGAI SEIYAKU KABUSHIKI KAISHA, priority 2016, published 2025).

Numbering of substitutions follows the chain as printed.

This experiment addresses T1, soluble human CD3 epsilon chain (human, UniProt P07766 23-126).
T1 construct: also called CD3ε
As to the kind of experiment: SPR.

T1 sequence (P07766 23-126 limits assumed): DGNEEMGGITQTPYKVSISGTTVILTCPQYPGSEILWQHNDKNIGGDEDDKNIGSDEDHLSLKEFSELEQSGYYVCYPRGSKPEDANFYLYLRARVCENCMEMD

B1: TR01H040-E22Hh/none-Hi-Kn010G3/L0247-k0 (antibody, V domains shown)
VH: QVQLVESGGGLVQPGRSLRLSCAASGFTFSNAWMHWVRQAPGKGLEWVAQIKDKSQNYATYYAESVKGRFTISRADSKNSIYLQMNSLKTEDTAVYYCRYVHYSASYGVDAWGQGTTVTVSS
VL: DIVMTQSPLSLPVTPGEPASISCRSSQSPVHSNRNTYIQWYQQKPGQAPRLLIYKVSNRFSGVPDRFSGSGSGTDFTLKISRVEAEDVGVYYCIQGTQVPYTFGQGTKLEIK
notes: one-arm
The molecule B1 displayed a Kd of 100 nM.

B2: TR01H081-E22Hh/none-Hi-Kn010G3/L0262-k0 (antibody, V domains shown)
VH: B1 VH with S104A, S106G, A111I
VL: B1 VL with S28P, I38L, Q39H, I94A
notes: one-arm
In the case of B2, the Kd stood at 5.76 nM.

B3: TR01H067-E22Hh/none-Hi-Kn010G3/L0248-k0 (antibody, V domains shown)
VH: B1 VH with A75D, I81L, S104A
VL: B1 VL with S25P, I94Y
notes: one-arm
Molecule B3 returned an equilibrium dissociation constant (Kd) of 139 nM.

B4: TR01H082-E22Hh/none-Hi-Kn010G3/L0267-k0 (antibody, V domains shown)
VH: B1 VH with A75D, I81L, S104A, S106G
VL: B1 VL with S25P, I38L, Q39H, I94V
notes: one-arm
With B4, the affinity, expressed as Kd, was 22.9 nM.

B5: TR01H082-E22Hh/none-Hi-Kn010G3/TR01L018-k0 (antibody, V domains shown)
VH: B1 VH with A75D, I81L, S104A, S106G
VL: B1 VL with R24Q, S25A, Q27E, I38L, Q39H, Q42L, A48S, R50Q, I94G
notes: one-arm
As for B5, the Kd was determined as 47.2 nM.

B6: TR01H040-E22Hh/none-Hi-Kn010G3/L0250-k0 (antibody, V domains shown)
VH: B1 VH
VL: B1 VL with S25P
notes: one-arm
For B6, the affinity, expressed as Kd, was 21.5 nM.

B7: TR01H084-E22Hh/none-Hi-Kn010G3/L0272-k0 (antibody, V domains shown)
VH: B1 VH with L11V, R16G, S104A, S106G, A111I
VL: B1 VL with S28P, P29L, N35Q, I38L, Q39H, I94G
notes: one-arm
The molecule B7 returned a dissociation constant Kd of 31 nM.

B8: TR01H082-E22Hh/none-Hi-Kn010G3/L0259-k0 (antibody, V domains shown)
VH: B1 VH with A75D, I81L, S104A, S106G
VL: B1 VL with Q39H, I94T
notes: one-arm
Take B8: binding was characterised by a dissociation constant (Kd) of 50.7 nM.

B9: TR01H040-E22Hh/none-Hi-Kn010G3/TR01L009-k0 (antibody, V domains shown)
VH: B1 VH
VL: B1 VL with P29L, I38L, Q39H, Q42L, A48S, R50Q, S61R, I94G
notes: one-arm
As for B9, the affinity, expressed as Kd, was 35.6 nM.

B10: TR01H061-E22Hh/none-Hi-Kn010G3/L0226-k0 (antibody, V domains shown)
VH: B1 VH with S104A, A111I
VL: B1 VL with Q39H
notes: one-arm
The molecule B10 displayed an equilibrium dissociation constant (Kd) of 47.1 nM.

B11: TR01H061-E22Hh/none-Hi-Kn010G3/L0200-k0 (antibody, V domains shown)
VH: B1 VH with S104A, A111I
VL: B1 VL with S25P, I38L, Q39H, I94G
notes: one-arm
B11 yielded a Kd of 12.7 nM.

B12: TR01H082-E22Hh/none-Hi-Kn010G3/L0260-k0 (antibody, V domains shown)
VH: B1 VH with A75D, I81L, S104A, S106G
VL: B1 VL with S25P, I38L, Q39H, I94T
notes: one-arm
In turn, B12 gave a dissociation constant Kd of 45.3 nM.

B13: TR01H082-E22Hh/none-Hi-Kn010G3/L0263-k0 (antibody, V domains shown)
VH: B1 VH with A75D, I81L, S104A, S106G
VL: B1 VL with Q39H, I94A
notes: one-arm
In the case of B13, binding was put at a Kd of 30.9 nM.

B14: TR01H067-E22Hh/none-Hi-Kn010G3/TR01L018-k0 (antibody, V domains shown)
VH: B1 VH with A75D, I81L, S104A
VL: B1 VL with R24Q, S25A, Q27E, I38L, Q39H, Q42L, A48S, R50Q, I94G
notes: one-arm
Molecule B14 showed a Kd of 52.6 nM.

B15: TR01H082-E22Hh/none-Hi-Kn010G3/L0264-k0 (antibody, V domains shown)
VH: B1 VH with A75D, I81L, S104A, S106G
VL: B1 VL with S25P, I38L, Q39H, I94A
notes: one-arm
Molecule B15 came in with an equilibrium dissociation constant (Kd) of 34.4 nM.

B16: TR01H071-E22Hh/none-Hi-Kn010G3/L0226-k0 (antibody, V domains shown)
VH: B1 VH with Q56N, S104A, A111I
VL: B1 VL with Q39H
notes: one-arm
B16 showed a Kd of 25.1 nM.

B17: TR01H040-E22Hh/none-Hi-Kn010G3/L0262-k0 (antibody, V domains shown)
VH: B1 VH
VL: B1 VL with S28P, I38L, Q39H, I94A
notes: one-arm
Molecule B17 showed a dissociation constant (Kd) of 18.1 nM.

B18: TR01H082-E22Hh/none-Hi-Kn010G3/L0272-k0 (antibody, V domains shown)
VH: B1 VH with A75D, I81L, S104A, S106G
VL: B1 VL with S28P, P29L, N35Q, I38L, Q39H, I94G
notes: one-arm
B18 displayed a Kd of 74.4 nM.

B19: TR01H071-E22Hh/none-Hi-Kn010G3/L0200-k0 (antibody, V domains shown)
VH: B1 VH with Q56N, S104A, A111I
VL: B1 VL with S25P, I38L, Q39H, I94G
notes: one-arm
Regarding B19, binding was put at a Kd of 6.13 nM.

B20: TR01H061-E22Hh/none-Hi-Kn010G3/L0215-k0 (antibody, V domains shown)
VH: B1 VH with S104A, A111I
VL: B1 VL with S28P, Q39H, I94G
notes: one-arm
As for B20, the Kd stood at 15.4 nM.

B21: TR01H067-E22Hh/none-Hi-Kn010G3/L0226-k0 (antibody, V domains shown)
VH: B1 VH with A75D, I81L, S104A
VL: B1 VL with Q39H
notes: one-arm
For the molecule B21, the Kd was found to be 132 nM.

B22: TR01H067-E22Hh/none-Hi-Kn010G3/L0215-k0 (antibody, V domains shown)
VH: B1 VH with A75D, I81L, S104A
VL: B1 VL with S28P, Q39H, I94G
notes: one-arm
Consider B22, for which the dissociation constant Kd was determined as 74.1 nM.

B23: TR01H082-E22Hh/none-Hi-Kn010G3/L0266-k0 (antibody, V domains shown)
VH: B1 VH with A75D, I81L, S104A, S106G
VL: B1 VL with S28P, I38L, Q39H, I94V
notes: one-arm
On to B23, for which the affinity, expressed as Kd, was 22.9 nM.

B24: TR01H067-E22Hh/none-Hi-Kn010G3/L0200-k0 (antibody, V domains shown)
VH: B1 VH with A75D, I81L, S104A
VL: B1 VL with S25P, I38L, Q39H, I94G
notes: one-arm
With B24, the dissociation constant (Kd) came out at 60.3 nM.

B25: TR01H067-E22Hh/none-Hi-Kn010G3/TR01L015-k0 (antibody, V domains shown)
VH: B1 VH with A75D, I81L, S104A
VL: B1 VL with I38L, Q39H, Q42L, A48S, R50Q, I94G
notes: one-arm
B25 yielded a Kd of 86.4 nM.

B26: TR01H082-E22Hh/none-Hi-Kn010G3/L0258-k0 (antibody, V domains shown)
VH: B1 VH with A75D, I81L, S104A, S106G
VL: B1 VL with S28P, I38L, Q39H, I94T
notes: one-arm
B26 showed an equilibrium dissociation constant (Kd) of 47 nM.

B27: TR01H040-E22Hh/none-Hi-Kn010G3/L0249-k0 (antibody, V domains shown)
VH: B1 VH
VL: B1 VL with S25P, I94S
notes: one-arm
B27 returned a dissociation constant Kd of 111 nM.

B28: TR01H040-E22Hh/none-Hi-Kn010G3/TR01L016-k0 (antibody, V domains shown)
VH: B1 VH
VL: B1 VL with I38L, Q39H, Q42L, A48S, R50Q, I94Y
notes: one-arm
B28: binding was characterised by a dissociation constant (Kd) of 2.52 nM.

B29: TR01H040-E22Hh/none-Hi-Kn010G3/L0248-k0 (antibody, V domains shown)
VH: B1 VH
VL: B1 VL with S25P, I94Y
notes: one-arm
On to B29, for which the dissociation constant (Kd) was found to be 78.9 nM.

B30: TR01H083-E22Hh/none-Hi-Kn010G3/L0262-k0 (antibody, V domains shown)
VH: B1 VH with Q56N, S104A, S106G, A111I
VL: B1 VL with S28P, I38L, Q39H, I94A
notes: one-arm
B30 returned a Kd of 2.45 nM.

B31: TR01H082-E22Hh/none-Hi-Kn010G3/L0268-k0 (antibody, V domains shown)
VH: B1 VH with A75D, I81L, S104A, S106G
VL: B1 VL with I94V
notes: one-arm
Regarding B31, the equilibrium dissociation constant (Kd) turned out to be 136 nM.

B32: TR01H084-E22Hh/none-Hi-Kn010G3/L0271-k0 (antibody, V domains shown)
VH: B1 VH with L11V, R16G, S104A, S106G, A111I
VL: B1 VL with S28P, N35Q, I38L, Q39H, I94G
notes: one-arm
For the molecule B32, binding was characterised by a dissociation constant (Kd) of 27.6 nM.

B33: TR01H067-E22Hh/none-Hi-Kn010G3/TR01L016-k0 (antibody, V domains shown)
VH: B1 VH with A75D, I81L, S104A
VL: B1 VL with I38L, Q39H, Q42L, A48S, R50Q, I94Y
notes: one-arm
Regarding B33, binding was put at a Kd of 10.9 nM.

B34: TR01H040-E22Hh/none-Hi-Kn010G3/TR01L008-k0 (antibody, V domains shown)
VH: B1 VH
VL: B1 VL with R24Q, S25A, Q27E, P29L, I38L, Q39H, S61R, I94G
notes: one-arm
Molecule B34 showed an equilibrium dissociation constant (Kd) of 29.3 nM.

B35: TR01H067-E22Hh/none-Hi-Kn010G3/L0262-k0 (antibody, V domains shown)
VH: B1 VH with A75D, I81L, S104A
VL: B1 VL with S28P, I38L, Q39H, I94A
notes: one-arm
In the case of B35, binding was put at a Kd of 49.2 nM.

B36: TR01H082-E22Hh/none-Hi-Kn010G3/L0271-k0 (antibody, V domains shown)
VH: B1 VH with A75D, I81L, S104A, S106G
VL: B1 VL with S28P, N35Q, I38L, Q39H, I94G
notes: one-arm
Molecule B36 yielded a Kd of 68.2 nM.

B37: TR01H040-E22Hh/none-Hi-Kn010G3/TR01L010-k0 (antibody, V domains shown)
VH: B1 VH
VL: B1 VL with P29L, I38L, Q39H, S61R, I94G, L109V, K112E
notes: one-arm
The molecule B37 gave a dissociation constant (Kd) of 32.8 nM.

B38: TR01H082-E22Hh/none-Hi-Kn010G3/L0262-k0 (antibody, V domains shown)
VH: B1 VH with A75D, I81L, S104A, S106G
VL: B1 VL with S28P, I38L, Q39H, I94A
notes: one-arm
B38 gave a Kd of 39.8 nM.

B39: TR01H082-E22Hh/none-Hi-Kn010G3/TR01L017-k0 (antibody, V domains shown)
VH: B1 VH with A75D, I81L, S104A, S106G
VL: B1 VL with Q42L, A48S, R50Q, I94Y
notes: one-arm
B39: the dissociation constant (Kd) amounted to 109 nM.

B40: TR01H082-E22Hh/none-Hi-Kn010G3/L0270-k0 (antibody, V domains shown)
VH: B1 VH with A75D, I81L, S104A, S106G
VL: B1 VL with P29L, N35Q, I38L, Q39H, I94G
notes: one-arm
Regarding B40, the Kd stood at 74.2 nM.

B41: TR01H084-E22Hh/none-Hi-Kn010G3/L0270-k0 (antibody, V domains shown)
VH: B1 VH with L11V, R16G, S104A, S106G, A111I
VL: B1 VL with P29L, N35Q, I38L, Q39H, I94G
notes: one-arm
With B41, the Kd was found to be 27.6 nM.

B42: TR01H071-E22Hh/none-Hi-Kn010G3/L0215-k0 (antibody, V domains shown)
VH: B1 VH with Q56N, S104A, A111I
VL: B1 VL with S28P, Q39H, I94G
notes: one-arm
In turn, B42 yielded a Kd of 9.51 nM.

B43: TR01H082-E22Hh/none-Hi-Kn010G3/TR01L023-k0 (antibody, V domains shown)
VH: B1 VH with A75D, I81L, S104A, S106G
VL: B1 VL with I38L, Q39H, Q42L, A48S, R50Q, I94T
notes: one-arm
For the molecule B43, the equilibrium dissociation constant (Kd) was 42.5 nM.

B44: TR01H084-E22Hh/none-Hi-Kn010G3/L0262-k0 (antibody, V domains shown)
VH: B1 VH with L11V, R16G, S104A, S106G, A111I
VL: B1 VL with S28P, I38L, Q39H, I94A
notes: one-arm
Consider B44, for which binding was characterised by a dissociation constant (Kd) of 8.51 nM.

B45: TR01H040-E22Hh/none-Hi-Kn010G3/TR01L015-k0 (antibody, V domains shown)
VH: B1 VH
VL: B1 VL with I38L, Q39H, Q42L, A48S, R50Q, I94G
notes: one-arm
In turn, B45 registered a dissociation constant Kd of 39.5 nM.
